Molecular target: human IL‐4Rα (human, UniProt P24394, N‐glycosylation sites (modelled in the crystal structure; positions not given))
Assay: cell-based or functional assay

B1: dAb1 (VHH)
VHH: QVQLVESGGGLVQPGGSLRLSCAASGDFYCMAWFRQAPGKEREAVAAIRSGGRSTYYADSVKGRFTISRDNSKNTLYLQMNSLKAEDTAVYYCAVGVDGNCRNYWGQGTLVTVSS
IC50 in the IL‐4‐induced TF‐1 cell proliferation assay (blocks IL‐4 with IL‐4Rα): ~0.15 nM
IC50 in the IL‐13‐induced TF‐1 cell proliferation assay (blocks IL‐13 with IL‐4Rα): ~0.15 nM

Source: PMC11381654, “Structural insight into interleukin‐4Rα and interleukin‐5 inhibition by nanobodies from a bispecific antibody” (MedComm, 2020)
